Laboratory results: IntAct's records for PubMed 18469807

Assays:
unc5b_human UNC5B [1] = target: unc5b_human UNC5B (UniProt Q8IZJ1)
unc5b_human UNC5B [2] = target: unc5b_human UNC5B (UniProt Q8IZJ1); remark: listed apart in the source

Sequence of unc5b_human UNC5B (Q8IZJ1 whole entry): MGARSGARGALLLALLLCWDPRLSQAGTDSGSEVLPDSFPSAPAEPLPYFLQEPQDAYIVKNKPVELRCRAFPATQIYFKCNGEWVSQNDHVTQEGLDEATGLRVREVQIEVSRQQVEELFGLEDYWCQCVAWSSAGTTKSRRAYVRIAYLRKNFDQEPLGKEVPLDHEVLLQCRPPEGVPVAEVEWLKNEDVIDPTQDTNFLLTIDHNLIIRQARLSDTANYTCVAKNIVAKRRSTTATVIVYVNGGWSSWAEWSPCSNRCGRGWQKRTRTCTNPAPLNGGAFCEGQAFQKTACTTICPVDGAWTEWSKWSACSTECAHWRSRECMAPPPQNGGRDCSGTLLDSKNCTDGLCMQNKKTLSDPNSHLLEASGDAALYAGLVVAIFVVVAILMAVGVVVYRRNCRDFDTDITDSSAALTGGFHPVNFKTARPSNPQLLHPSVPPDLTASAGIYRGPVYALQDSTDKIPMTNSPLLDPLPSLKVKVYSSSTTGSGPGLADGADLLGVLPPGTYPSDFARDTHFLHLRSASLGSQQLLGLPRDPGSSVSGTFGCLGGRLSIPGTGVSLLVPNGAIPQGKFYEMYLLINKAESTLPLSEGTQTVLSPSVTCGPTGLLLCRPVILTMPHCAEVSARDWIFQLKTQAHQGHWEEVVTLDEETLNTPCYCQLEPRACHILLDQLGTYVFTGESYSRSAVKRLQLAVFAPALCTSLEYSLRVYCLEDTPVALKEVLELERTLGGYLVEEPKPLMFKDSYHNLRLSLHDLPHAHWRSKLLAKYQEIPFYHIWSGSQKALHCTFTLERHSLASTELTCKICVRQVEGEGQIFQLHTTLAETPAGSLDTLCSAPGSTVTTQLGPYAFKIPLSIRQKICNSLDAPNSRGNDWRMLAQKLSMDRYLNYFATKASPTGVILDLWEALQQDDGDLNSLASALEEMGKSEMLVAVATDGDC

Substance: Arf-GAP with GTPase, ANK repeat and PH domain-containing protein 2 (Rattus norvegicus (Rat)), Q8CGU4 Y1032F
- effect of a mutation on the interaction (unc5b_human UNC5B [1]): disrupting interaction

Substance: Arf-GAP with GTPase, ANK repeat and PH domain-containing protein 2 (Rattus norvegicus (Rat)), Q8CGU4 K413A;S414N
- effect of a mutation on the interaction (unc5b_human UNC5B [2]): disrupting interaction

Substance: Arf-GAP with GTPase, ANK repeat and PH domain-containing protein 2 (Rattus norvegicus (Rat)), Q8CGU4 Y1124F
- effect of a mutation on the interaction (unc5b_human UNC5B [1]): disrupting interaction

Substance: Arf-GAP with GTPase, ANK repeat and PH domain-containing protein 2 (Rattus norvegicus (Rat)), Q8CGU4 Y1032F;Y1124F
- effect of a mutation on the interaction (unc5b_human UNC5B [1]): disrupting interaction
